# Assay results reported in the supplement of paper PMC7877785.
# ± gives the uncertainty stated by the source.
# Assay: self-splicing fitness, log relative to wild type (ln ratio); higher = more splicing; Tetrahymena group I intron in knt gene, E. coli kanamycin selection, DiMSum; sequences stand for … in CUCUCU…GGAGGGAAAAGUUAUCAGGCAUGCACCUGGUAGCUAGUCUUUAAACCAAUAGAUUGCAUCGGUUUAAAAGGCAAGACCGUCAAAUUGCGGGAAAGGGGUCAACAGCCGUUCAGUACCAAGUCUCAGGGGAAACUUUGAGAUGGCCUUGCAAAGGGUAUGGUAAUAAGCUGACGGACAUGGUCCUAACCACGCAGCCAAGUCCUAAGUCAACAGAUCUUCUGUUGAUAUGGAUGCAGUUCACAGACUAAAUGUCGGUCGGGGAAGAUGUAUUCUUCUCAUAAGAUAUAGUCGGACCUCUCCUUAAUGGGAGCUAGCGGAUGAAGUGAUGCAACACUGGAGCCGCUGGGAACUAAUUUGUAUGCGAAAGUAUAUUGAUUAGUUUUGGAGUACUCGUGGUCG
# Outline: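 Fitness was computed with DiMSum as the error-weighted combination of replicate fold changes, kanamycin versus none, each normalised to wild type. The library randomised all eight intron nucleotides of the P1ex region, with the intron placed in the knt kanamycin-resistance gene on pET-22b(+) in E. coli BL21(DE3). Six replicate transformations were grown overnight at 37°C or 30°C on LB agar with or without 25 μg/mL kanamycin, plus 100 μg/mL carbenicillin, 50 μM IPTG and 0.2% rhamnose. Pooled colonies were amplicon-sequenced on an Illumina HiSeq 2500.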
Sequence,self-splicing fitness (ln) (30 °C),self-splicing fitness (ln) (37 °C)
GUCUAGCAAUAUUACGCUCA,0.346 ± 0.16,0.103 ± 0.19
GGCGAGCAAUAUUACGACGC,-1.89 ± 0.29,–
GUCAAGCAAUAUUACGCUCG,-2.95 ± 0.14,-1.18 ± 0.12
CACCAGCAAUAUUACGCGGG,-3.44 ± 0.16,-2.4 ± 0.15
AGCUAGCAAUAUUACGGAGC,-2.44 ± 0.17,-1.46 ± 0.23
CAAGAGCAAUAUUACGCUAG,–,-2.98 ± 0.35
GCCAAGCAAUAUUACGCGCA,-0.985 ± 0.12,0.097 ± 0.11
CUCAAGCAAUAUUACGUACU,-3.51 ± 0.22,-1.29 ± 0.17
UUAGAGCAAUAUUACGCAUU,-3.24 ± 0.38,–
CUACAGCAAUAUUACGUACA,-1.78 ± 0.17,-1.29 ± 0.2
CGUUAGCAAUAUUACGCACC,-1.94 ± 0.35,-1.79 ± 0.48
UCCCAGCAAUAUUACGGCAU,-2.77 ± 0.11,-1.01 ± 0.11
UAUCAGCAAUAUUACGUCCG,-0.361 ± 0.11,0.121 ± 0.14
CAUAAGCAAUAUUACGUCAU,-3.67 ± 0.19,-2.19 ± 0.19
AAUAAGCAAUAUUACGGCUC,-0.468 ± 0.13,0.129 ± 0.15
UGAAAGCAAUAUUACGGAAA,-1.83 ± 0.18,-1.29 ± 0.17
AAUGAGCAAUAUUACGUAUU,-3.41 ± 0.14,-2.48 ± 0.16
AGCCAGCAAUAUUACGCCCC,-1.54 ± 0.24,0.277 ± 0.32
AUGCAGCAAUAUUACGCCUA,-0.128 ± 0.1,-0.513 ± 0.12
CACUAGCAAUAUUACGCAUA,-2.75 ± 0.2,-2.83 ± 0.24
AGCUAGCAAUAUUACGUAAA,-3.11 ± 0.19,-1.14 ± 0.16
GCCAAGCAAUAUUACGAGCA,-1.82 ± 0.14,-1.11 ± 0.15
GACCAGCAAUAUUACGACCG,-0.572 ± 0.11,-0.318 ± 0.17
AGCUAGCAAUAUUACGAAGA,-2.45 ± 0.24,-2.86 ± 0.18
ACUUAGCAAUAUUACGAAGC,–,-2.25 ± 0.5

Sequence,self-splicing fitness (ln) (30 °C),self-splicing fitness (ln) (37 °C)
AUACAGCAAUAUUACGAUAA,-1.37 ± 0.099,-0.374 ± 0.11
GCACAGCAAUAUUACGCAAC,-2.31 ± 0.17,-1.03 ± 0.19
GACCAGCAAUAUUACGCCGA,-0.69 ± 0.14,-0.272 ± 0.15
UCACAGCAAUAUUACGGAUC,-4.77 ± 0.46,-3.11 ± 0.33
GAGAAGCAAUAUUACGGGUU,-1.88 ± 0.11,-1.87 ± 0.16
CAUGAGCAAUAUUACGAUCG,-0.0708 ± 0.12,-0.399 ± 0.14
GGAGAGCAAUAUUACGUGCU,-2.88 ± 0.27,–
AAGGAGCAAUAUUACGUCCA,-1.29 ± 0.16,-0.459 ± 0.16
GCCGAGCAAUAUUACGACAU,-2.286 ± 0.016,-1.27 ± 0.034
AUCGAGCAAUAUUACGCUCA,-1.09 ± 0.26,-0.721 ± 0.4
GAAAAGCAAUAUUACGUAGA,-0.772 ± 0.076,-1.77 ± 0.13
GAUAAGCAAUAUUACGUUCG,-1.42 ± 0.098,-1.05 ± 0.14
GUCCAGCAAUAUUACGACGU,0.172 ± 0.091,0.365 ± 0.085
CGGCAGCAAUAUUACGCAUG,-2.27 ± 0.074,-1.05 ± 0.082
UUCUAGCAAUAUUACGUCGG,-3.54 ± 0.26,-3.1 ± 0.29
UCUUAGCAAUAUUACGCAAA,-1.56 ± 0.32,-2.31 ± 0.29
CGUCAGCAAUAUUACGAUGA,-0.998 ± 0.11,0.0314 ± 0.11
AUUCAGCAAUAUUACGCAGG,-1.26 ± 0.12,-0.594 ± 0.16
GUACAGCAAUAUUACGGCGC,-0.365 ± 0.082,-0.0882 ± 0.095
CCGUAGCAAUAUUACGCUCU,-2.65 ± 0.37,-2.48 ± 0.39
GAUUAGCAAUAUUACGCGAC,-3.24 ± 0.31,-2.32 ± 0.23
UACGAGCAAUAUUACGGCUU,-3.48 ± 0.21,-1.84 ± 0.16
UCGUAGCAAUAUUACGAGUA,-2.71 ± 0.18,-1.21 ± 0.13
UUUGAGCAAUAUUACGCCUU,–,-2.2 ± 0.45
